Data on one substance can be found in publication PMC8034618.

Holding throughout (experiment): EMSA
On the technique in general: In EMSA bound probe runs differently from free probe, usually more slowly.

Series [1] relates to LARP1 665-947 cluster 6 full phosphomimetic (10 sites) (Homo sapiens). Particulars: tRNA and BSA competitors; stated 4.99-fold reduction; m7Gppp cap; EMSA: 20 mM Tris-HCl pH 8, 150 mM NaCl, 10% glycerol, 1 mM DTT, 0.5 ug tRNA, 1 ug BSA in …; on ice 30 min; 7-8% native 0.5x TBE gel at 4 C; RNA <=200 pM.
The subject of series [2] is LARP1 665-947 cluster 6 partial phosphomimetic (5 sites) (Homo sapiens). The following applies: tRNA and BSA competitors; m7Gppp cap; EMSA: 20 mM Tris-HCl pH 8, 150 mM NaCl, 10% glycerol, 1 mM DTT, 0.5 ug tRNA, 1 ug BSA in 10 ul; on ice 30 min; 7-8% native 0.5x TBE gel at 4 C; RNA <=200 pM.
Series [3] deals with LARP1 796-1019 cluster 7 phosphomimetic (Homo sapiens). Particulars: tRNA and BSA competitors; enhanced relative to WT 796-1019; m7Gppp cap; EMSA: 20 mM Tris-HCl pH 8, 150 mM NaCl, 10% glycerol, 1 mM DTT, 0.5 ug tRNA, 1 ug BSA in 10 ul; on ice 30 min; 7-8% native 0.5x TBE gel at 4 C; RNA <=200 pM.

In the case of m7G-RPS6-UTR (capped RPS6 20-mer), the Kd (commonly a measure of binding affinity in units of concentration) stood at 2840 nM in series [1], 902 nM in series [2] and 44 nM in series [3].
